According to patent publication US10047131B2, “Peptides and combination of peptides for use in immunotherapy against ovarian cancer and other cancers” (immatics biotechnologies GmbH, priority 2015, dated 2018):

biological target: HLA-A*02:01 (Homo sapiens, UniProt P04439, D140Y/D185E/D98H/E176V/E277Q/G131W/G231S/I119V/I121R/I166T/I218V/L300P/L318F/N151K/N90K/P208A/P217A/Q86G/Q94H/R138H/R169H/T345S); assay: MHC binding assay (UV-ligand exchange, ELISA of exchange yield); conditions: binding to HLA-A*02:01, UV-ligand exchange
Summary of the method: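 Peptide–MHC complexes made by UV-ligand exchange, where a UV-cleavable peptide is replaced by the test peptide. Exchange yield measured by ELISA: complexes diluted 100-fold on streptavidin-coated plates, stabilized complexes detected with HRP anti-β2m, TMB read at 450 nm.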

| Peptide exchange (MHC class I binding score, peptide exchange yield) | Substance |
| --- | --- |
| “+++” (≥50 = +++) | 188 (GLFPVTPEAV; listed as Homo sapiens) [compound 188] |
| “+++” (≥50 = +++) | 189 (ALQRKLPYV; listed as Homo sapiens) [compound 189] |
| “+++” (≥50 = +++) | 190 (FLSSLTETI; listed as Homo sapiens) [compound 190] |
| “++” (≥20% = ++) | 191 (LLQEGQALEYV; listed as Homo sapiens) [compound 191] |
| “+++” (≥50 = +++) | 192 (KMLDGASFTL; listed as Homo sapiens) [compound 192] |
| “+++” (≥50 = +++) | 193 (QLLDADGFLNV; listed as Homo sapiens) [compound 193] |
| “+++” (≥50 = +++) | 194 (ALPLFVITV; listed as Homo sapiens) [compound 194] |
| “+++” (≥50 = +++) | 195 (GLFADLLPRL; listed as Homo sapiens) [compound 195] |

More lines, now with the values behind:

| Substance | Peptide exchange (MHC class I binding score, peptide exchange yield) |
| --- | --- |
| 169 (NLPEYLPFV; listed as Homo sapiens) [compound 169] | “+++” (≥50 = +++) |
| 170 (RLQETLSAA; listed as Homo sapiens) [compound 170] | “+++” (≥50 = +++) |
| 171 (LLLPLQILL; listed as Homo sapiens) [compound 171] | “+++” (≥50 = +++) |
| 172 (VLYSYTIITV; listed as Homo sapiens) [compound 172] | “++” (≥20% = ++) |
| 173 (LLDSASAGLYL; listed as Homo sapiens) [compound 173] | “+++” (≥50 = +++) |
| 174 (ALAQYLITA; listed as Homo sapiens) [compound 174] | “+++” (≥50 = +++) |
| 175 (YLFENISQL; listed as Homo sapiens) [compound 175] | “+++” (≥50 = +++) |
| 176 (YLMEGSYNKVFL; listed as Homo sapiens) [compound 176] | “++” (≥20% = ++) |
| 177 (YLLPEEYTSTL; listed as Homo sapiens) [compound 177] | “++++” (≥75% = ++++) |
| 178 (ALTEIAFVV; listed as Homo sapiens) [compound 178] | “++++” (≥75% = ++++) |
| 179 (KVLNELYTV; listed as Homo sapiens) [compound 179] | “+++” (≥50 = +++) |
| 180 (FQIDPHSGLVTV; listed as Homo sapiens) [compound 180] | “++” (≥20% = ++) |
| 181 (LLWAGTAFQV; listed as Homo sapiens) [compound 181] | “+++” (≥50 = +++) |
| 182 (MLLEAPGIFL; listed as Homo sapiens) [compound 182] | “+++” (≥50 = +++) |
| 183 (FGLDLVTEL; listed as Homo sapiens) [compound 183] | “+++” (≥50 = +++) |
| 184 (YLMDINGKMWL; listed as Homo sapiens) [compound 184] | “+++” (≥50 = +++) |
| 185 (FLIDDKGYTL; listed as Homo sapiens) [compound 185] | “++” (≥20% = ++) |
| 186 (TLFFQQNAL; listed as Homo sapiens) [compound 186] | “++” (≥20% = ++) |
| 187 (RQISIRGIVGV; listed as Homo sapiens) [compound 187] | “+++” (≥50 = +++) |
